Laboratory results as given in patent US20220281997A1 (NANJING GENSCRIPT BIOTECH, published 2022).

B1: R166.C5 (antibody, V domains shown)
VH: QSVEESGGRLVTPGTPLTLTCTVSGFSLRNFAMSWVRQAPGKGLEWIGIIYSGGTRDYATWAKGRFTISKTSTTVDLKMTSPTTEDTATYFCARDRSPDYSAAFLLWGQGTLVTVSS
VL: IVMTQTPSSKSVPVGDTVTINCQASESVYSNNHLAWFQQKPGQPPKLLIYSASTLESGVPSRFKGSGSGTQFTLTISGVQCDDAATYYCAGYKSSDTDGTSFGGGTEVVVKG
notes: Rabbit monoclonal; also called clone R166.C5; antibody clone R166.C5
B2: R166.E5 (antibody, V domains shown)
VH: QSLEESGGRLVTPGTPLTLTCTASGFSLSGYYMIWVRQAPGKGLEYIGIVTSSGSTHYASWANGRFAISKTSSTTVDLKMPSLTTEDTATYFCAREGGWAFDLWGQGTLVTVSS
VL: QVLTQTPFSVSTAVGGTVTINCQSSESVANSNWLSWYQQKPGQPPKLLIYWASKLASGVPSRFSGSGSGTQFTLTISGVQCADAATYYCQGGYTSDRRAFGGGTEVVVKG
notes: Rabbit monoclonal; also called clone R166.E5
B3: R166.E3 (antibody, V domains shown)
VH: QSLEESGGRLVTPGTPLTLTCTVSGIDLSSCVLIWVRQAPEKGLEWIGFIYGSGNAYYANWAKGRFTISKTSSTTVDLKITSPTTEDTATYFCARSQEDDSFGYGFNLWGQGTLVTVSS
VL: AYDMTQTPASVEVAVGGTVTINCQASQSIGTYLSWYQQKPGQPPKLLIYRASTLTSGVSSRFKGSGSGTQFTLTISGVECADAATYYCQEGYSDINVNNIFGGGTEVVVKG
notes: Rabbit monoclonal; also called clone R166.E3
B4: R166.A5 (antibody, V domains shown)
VH: QSVEESGGRLVTPGTPLTLTCTVSGFSLNNYTVIWVRQAPGKGLEWIGIIFGSGGTYYATWAEGRFTISRTSTTVDLKMTSPTTEDTATYFCARGYFGNTFWAMDPWGPGTLVTVSS
VL: NIVMTQTPASVSGAVGGTVTIKCQASQSISTYLSWYQQKPGQPPKLLIYQASELAYGVSSRFKGSGSGTEFTLTISGVECADAATYYCQQGYSDINVDNFFGGGTEVVVKG
notes: Rabbit monoclonal; also called clone R166.A5; antibody clone R166.A5
B5: R166.H10 (antibody, V domains shown)
VH: QSLEESGGRLVTPGTPLTLTCTASGFSLSSYWMSWVRQAPGKGLEYIGIISGSGSTYYATWAKGRFTISKTSSTTVDLKITSPTTEDTATYFCARGNPHYSFGFNIWGPGTLVTVSL
VL: DIVMTQTPASVSEPVGGTVTINCQASESIYSWLSWYQQKPGQPPKLLIYSASYLASGVPSQFRGSGSGTEYTLTISDLECADAATYYCQYNYDSGDGITNGFGGGTEVVVKG
notes: Rabbit monoclonal; also called clone R166.H10
B6: R166.H9 (antibody, V domains shown)
VH: QSLEESGGRLVTPGTPLTLTCTASGFSLNNYNMIWVRQAPGEGLEWIGMIGDGDDAAWYASWAKGRFTISKTSTTVDLEVTSLTTEDTAIYFCARYLSFTRLDLWGQGTLVTVSS
VL: AVLTQTPSPVSAAVGGTVTINCQSSQSVYHNNWLAWYQQKPGQPPKLLIYGAATLASGVPSRFKGSGSGTQFTFTITDVQCDDVGTYYCAGVYNDDSENAFGGGTEVVVKG
notes: Rabbit monoclonal; also called clone R166.H9

biological target: T1, AS675 VHH (camel-derived); experiment: SPR, Biacore 8K; VHH-His captured on anti-His antibody chip
T1 construct: One of the 10 different camel-derived nanobodies; not shown: His tag (VHH-His)
T1 sequence (VHH, as listed by the source): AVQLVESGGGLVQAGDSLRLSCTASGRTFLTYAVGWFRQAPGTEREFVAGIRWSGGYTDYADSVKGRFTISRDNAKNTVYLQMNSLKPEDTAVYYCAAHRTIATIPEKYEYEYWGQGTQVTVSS
Excerpt: (§1) The camel-derived nanobody with the lowest affinity to the cloned antibody was AS587, and the affinity reached 2.2 nmol.

| Binder | binding result |
| --- | --- |
| B1 | binds |

biological target: T2, AS154 VHH (camel-derived); experiment: as above
T2 construct: One of the 10 different camel-derived nanobodies; not shown: His tag (VHH-His)
T2 sequence (VHH, as listed by the source): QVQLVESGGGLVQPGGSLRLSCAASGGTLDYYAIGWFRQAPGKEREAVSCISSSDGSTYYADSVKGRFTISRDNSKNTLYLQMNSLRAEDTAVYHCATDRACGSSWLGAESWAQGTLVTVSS
Excerpt: as §1

| Binder | binding result |
| --- | --- |
| B1 | binds |

biological target: T3, AS200 VHH (camel-derived); experiment: as above
T3 construct: One of the 10 different camel-derived nanobodies; not shown: His tag (VHH-His)
T3 sequence (VHH, as listed by the source): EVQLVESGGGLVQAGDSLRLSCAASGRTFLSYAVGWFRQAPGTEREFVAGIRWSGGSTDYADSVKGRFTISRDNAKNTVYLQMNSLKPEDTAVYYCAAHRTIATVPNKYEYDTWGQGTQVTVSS
Excerpt: as §1

| Binder | binding result |
| --- | --- |
| B1 | binds |

biological target: T4, AS988 VHH (camel-derived); experiment: indirect ELISA, VHH coated
T4 construct: One of the 10 different camel-derived nanobodies; not shown: His tag (VHH-His)
T4 sequence (VHH, as listed by the source): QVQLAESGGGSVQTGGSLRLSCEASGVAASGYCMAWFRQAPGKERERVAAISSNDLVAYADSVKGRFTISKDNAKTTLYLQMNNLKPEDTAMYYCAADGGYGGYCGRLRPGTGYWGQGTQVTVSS
Experimental: (§2) The ELISA plate was coated with 10 different VHHs at […] in 100 μl/well of PBS at 4° C. overnight, respectively; the plate was washed with PBS-T (0.05% Tween) and blocked with 200 μl/well of PBST containing 1% BSA at 37° C. for 0.5 hours; the blocking solution was aspirated and discarded, and 100 μl of 1 μg/ml purified antibodies were added to the first well, diluted in a 3-fold gradient for a total of 11 test concentration gradients and incubated at room temperature for 1 hour; the plate was washed three times with PBST and incubated with 100 μl/well of goat anti-rabbit IgG conjugated with horseradish peroxidase (GenScript Goat Anti-Rabbit IgG Antibody (H&L) [HRP], pAb; CAT #: A00098) at 37° C. for 0.5 hours; the plate was washed five times with PBST, and then a TMB color developing solution was added; and the plate was incubated in the dark at room temperature for 15 minutes. The reaction was stopped by adding 50 μl of 1 M HCl stop solution. The plate was read at 450 nm using a microplate reader; and the binding abilities of 15 clones to VHH-His were obtained (as shown in FIGS. 6a and 6b). […] On one hand, the affinities of the antibody of the same camel-derived nanobody to different camel-derived nanobodies were different; on the other hand, the affinities of different antibodies of camel-derived nanobodies to the same camel-derived nanobody were different. However, on the whole, all the 15 purified antibodies can be recognized with 10 different camel-derived nanobodies.

| Binder | binding result |
| --- | --- |
| B2 | binds |
| B3 | binds |
| B4 | binds |
| B5 | binds |
| B6 | binds |

biological target: T1, AS675 VHH; experiment: indirect ELISA, VHH coated
Experimental: as §2

| Binder | binding result |
| --- | --- |
| B2 | binds |
| B3 | binds |
| B4 | binds |
| B5 | binds |
| B6 | binds |

biological target: T5, AS519 VHH (camel-derived); experiment: indirect ELISA, VHH coated
T5 construct: One of the 10 different camel-derived nanobodies; not shown: His tag (VHH-His)
T5 sequence (VHH, as listed by the source): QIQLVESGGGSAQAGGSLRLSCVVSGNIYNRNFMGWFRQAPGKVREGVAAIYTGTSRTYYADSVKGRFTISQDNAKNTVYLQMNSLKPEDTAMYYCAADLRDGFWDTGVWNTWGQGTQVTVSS
Experimental: as §2

| Binder | binding result |
| --- | --- |
| B2 | binds |
| B3 | binds |
| B4 | binds |
| B5 | binds |
| B6 | binds |

biological target: T6, AS656 VHH (camel-derived); experiment: indirect ELISA, VHH coated
T6 construct: One of the 10 different camel-derived nanobodies; not shown: His tag (VHH-His)
T6 sequence (VHH, as listed by the source): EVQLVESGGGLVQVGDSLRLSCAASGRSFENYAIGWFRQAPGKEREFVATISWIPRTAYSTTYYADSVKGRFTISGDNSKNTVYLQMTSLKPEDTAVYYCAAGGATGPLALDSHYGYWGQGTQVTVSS
Experimental: as §2

| Binder | binding result |
| --- | --- |
| B2 | binds |
| B3 | binds |
| B4 | binds |
| B5 | binds |
| B6 | binds |

biological target: T2, AS154 VHH; experiment: indirect ELISA, VHH coated
Experimental: as §2

| Binder | binding result |
| --- | --- |
| B2 | binds |
| B3 | binds |
| B4 | binds |
| B5 | binds |
| B6 | binds |

biological target: T7, AS325 VHH (camel-derived); experiment: indirect ELISA, VHH coated
T7 construct: One of the 10 different camel-derived nanobodies; not shown: His tag (VHH-His)
T7 sequence (VHH, as listed by the source): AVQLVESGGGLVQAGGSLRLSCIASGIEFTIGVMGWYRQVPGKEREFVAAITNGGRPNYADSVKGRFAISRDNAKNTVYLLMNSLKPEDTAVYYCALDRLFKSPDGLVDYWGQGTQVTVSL
Experimental: as §2

| Binder | binding result |
| --- | --- |
| B2 | binds |
| B3 | binds |
| B4 | binds |
| B5 | binds |
| B6 | binds |

biological target: T3, AS200 VHH; experiment: indirect ELISA, VHH coated
Experimental: as §2

| Binder | binding result |
| --- | --- |
| B2 | binds |
| B3 | binds |
| B4 | binds |
| B5 | binds |
| B6 | binds |

biological target: T8, AS587 VHH (camel-derived); experiment: indirect ELISA, VHH coated
T8 construct: One of the 10 different camel-derived nanobodies; not shown: His tag (VHH-His)
T8 sequence (VHH, as listed by the source): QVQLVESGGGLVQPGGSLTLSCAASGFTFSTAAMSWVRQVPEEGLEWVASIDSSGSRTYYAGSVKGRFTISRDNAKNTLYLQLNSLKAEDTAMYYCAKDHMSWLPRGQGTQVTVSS
Experimental: as §2

| Binder | binding result |
| --- | --- |
| B2 | binds |
| B3 | binds |
| B4 | binds |
| B5 | binds |
| B6 | binds |

biological target: T9, AS673 VHH (camel-derived); experiment: indirect ELISA, VHH coated
T9 construct: One of the 10 different camel-derived nanobodies; not shown: His tag (VHH-His)
T9 sequence (VHH, as listed by the source): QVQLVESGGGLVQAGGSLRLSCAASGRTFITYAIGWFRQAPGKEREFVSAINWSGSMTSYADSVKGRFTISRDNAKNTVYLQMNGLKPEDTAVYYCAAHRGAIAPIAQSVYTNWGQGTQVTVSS
Experimental: as §2

| Binder | binding result |
| --- | --- |
| B2 | binds |
| B3 | binds |
| B4 | binds |
| B5 | binds |
| B6 | binds |

biological target: T10, AS588 VHH (camel-derived); experiment: indirect ELISA, VHH coated
T10 construct: One of the 10 different camel-derived nanobodies; not shown: His tag (VHH-His)
T10 sequence (VHH, as listed by the source): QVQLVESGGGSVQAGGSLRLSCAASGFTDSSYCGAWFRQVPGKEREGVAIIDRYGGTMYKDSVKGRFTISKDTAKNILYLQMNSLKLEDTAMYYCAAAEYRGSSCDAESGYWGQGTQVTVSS
Experimental: as §2

| Binder | binding result |
| --- | --- |
| B2 | binds |
| B3 | binds |
| B4 | binds |
| B5 | binds |
| B6 | binds |

biological target: T11, His-tag camel-derived nanobody AS718 VHH-His (camel-derived); experiment: indirect ELISA, AS718 VHH-His coated, hybridoma supernatant
T11 construct: Immunogen; recombinantly expressed with a C-terminal His tag; also called immunogen AS718; immunogen AS718 VHH-His; not shown: C-terminal His tag
T11 sequence (VHH, as listed by the source): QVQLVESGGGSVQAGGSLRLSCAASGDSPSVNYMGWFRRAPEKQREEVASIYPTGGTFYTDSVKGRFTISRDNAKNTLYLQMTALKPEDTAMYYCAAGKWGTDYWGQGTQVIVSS
Experimental: The rabbit spleen was extracted and homogenized to produce a single-cell suspension, and a single-cell suspension of myeloma cells was prepared at the same time. 1.0×10⁸ splenocytes were fused with 1.2×10⁵ myeloma cells by electrofusion; the fused cells were resuspended in 100 ml of DMEM/10% FBS culture medium containing hybridoma selective agents, thymidine, hypoxanthine and aminopterin, and transferred to a 150×96-well plate in a volume of 100 μl with a pipette; and the plate was incubated at 37° C. in 6% CO₂. After 9 days of incubation, the indirect ELISA was used to evaluate the binding ability of the antibody in the supernatant to VHH-His, indicating the presence of the antibody to VHH-His.
The ELISA plate was coated with 100 μl/well of 0.5 μg/ml VHH-His or His protein in PBS at 4° C. overnight; the plate was washed with PBS-T (0.05% Tween20) and blocked with 200 μl/well of PBST containing 1% BSA at 37° C. for 0.5 hours; the blocking solution was aspirated and discarded, and 100 μl of hybridoma cell culture supernatant was added to each well and then incubated at room temperature for 1 hour; after the incubation, the supernatant was discarded, and the plate was washed three times with PBST and incubated with 100 μl/well of goat anti-rabbit IgG conjugated with horseradish peroxidase (GenScript Goat Anti-Rabbit IgG Antibody (H&L) [HRP], pAb; CAT #: A00098) at 37° C. for 0.5 hours; the plate was washed five times with PBST, and then a TMB color developing solution was added; and the plate was incubated in the dark at room temperature for 15 minutes. The reaction was stopped by adding 50 μl of 1 M HCl stop solution. The plate was read at 450 nm using a microplate reader. In FIG. 3, by the mode of indirect ELISA, immunogen AS718 VHH-His was used to coat the ELISA detection plate, and the titers of the supernatant stock solutions of 15 parent clones were detected by OD450 reading, and the cross-reactions thereof with the His-tag protein were detected at the same time to exclude non-specific combinations. In the experiment, the positive serum was used as a positive control for immunogen AS718 VHH-His, and the Anti-His antibody was used as a positive control for detection target His-tag protein in the reverse screening. The detection value greater than 0.5 was determined to be positive, and the detection value less than 0.2 was determined to be negative.

| Binder | binding result |
| --- | --- |
| B2 | binds |
| B3 | binds |
| B4 | binds |
| B5 | binds |
| B6 | binds |
